Patent publication US20160326257A1 (PIERRE FABRE MEDICAMENT, published 2016)

Assays:
[1] = target: T1, human ADAM17 on tumour cells (A431, MCF-7, NCI-H1299) (human, UniProt P78536 215-824); assay: binding to NCI-H1299 tumour cells, read as MFI against antibody concentration (Log [M])
T1 construct: Endogenous ADAM17 on human tumour cell lines; also called cellular form of ADAM17

[2] = target: T1, human ADAM17 on tumour cells (A431, …); assay: cell-based or functional assay
[3] = target: ADAM17 fragments and chimeric constructs giving the positive response (BIAcore); assay: SPR Biacore X100, about 700 RU m1022C3 captured, construct at 250 nM for 3 min
[4] = target: M1-602H603-671 (p-c-d-mpd (Nter)-MPD (Cter)) murine/human chimeric ADAM17 human Fc fusion (murine; human) (UniProt Q9Z0F8); assay: as above
Sequence of M1-602H603-671 (p-c-d-mpd (Nter)-MPD (Cter)) murine/human chimeric ADAM17 human Fc fusion (murine; human) (Q9Z0F8 other isoform, or with tags, fused parts or gaps mutant limits assumed, form in doubt): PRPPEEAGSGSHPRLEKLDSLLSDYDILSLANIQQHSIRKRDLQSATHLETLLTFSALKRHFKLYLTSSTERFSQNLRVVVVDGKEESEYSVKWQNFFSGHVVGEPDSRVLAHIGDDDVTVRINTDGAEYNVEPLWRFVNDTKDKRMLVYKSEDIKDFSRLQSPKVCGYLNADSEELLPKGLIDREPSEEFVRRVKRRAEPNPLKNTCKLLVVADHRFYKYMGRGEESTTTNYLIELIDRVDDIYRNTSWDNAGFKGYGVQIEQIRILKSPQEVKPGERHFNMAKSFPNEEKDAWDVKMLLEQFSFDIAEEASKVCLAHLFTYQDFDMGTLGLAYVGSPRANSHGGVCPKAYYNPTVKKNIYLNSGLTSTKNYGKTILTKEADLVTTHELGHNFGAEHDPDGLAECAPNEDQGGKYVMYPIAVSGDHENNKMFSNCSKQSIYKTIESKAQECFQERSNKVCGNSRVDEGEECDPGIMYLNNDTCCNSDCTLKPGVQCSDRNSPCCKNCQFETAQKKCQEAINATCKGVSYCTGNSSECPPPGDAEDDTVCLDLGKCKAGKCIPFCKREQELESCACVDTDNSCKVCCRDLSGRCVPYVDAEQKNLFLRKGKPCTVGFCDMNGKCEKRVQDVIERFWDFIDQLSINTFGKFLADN

[5] = target: M1-671 (p-c-d-mpd) murine ADAM17 human Fc fusion (murine) (UniProt Q9Z0F8); assay: as above
Sequence of M1-671 (p-c-d-mpd) murine ADAM17 human Fc fusion (murine) (Q9Z0F8 18-671 limits assumed, form in doubt): as the sequence (Q9Z0F8 other isoform, or with tags, fused parts or gaps mutant limits assumed, form in doubt) above, with D589N, R593P counted along it

[6] = target: T2, H475-563 (D) human ADAM17 human Fc fusion (human, UniProt P78536 475-563); assay: as above
T2 construct: Expressed in HEK293 and purified on protein A; not shown: human Fc domain at the C-terminus
T2 sequence (P78536 475-563): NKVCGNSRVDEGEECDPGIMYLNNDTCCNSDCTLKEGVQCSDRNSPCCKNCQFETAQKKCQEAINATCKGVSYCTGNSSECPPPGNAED
Method: (§1) The experiment was performed on a Biacore X100 device. The mAb 1022C3 is used as the ligand and the ADAM17 fragments and chimeric constructs are used as the analyte. The experiment is run at 10 μl/min at 25° C. on a rabbit anti-mouse polyclonal antibody (Mouse antibody capture kit, BR-1008-38, GE Healthcare) covalently linked to the matrix of both flowcells of a CM5 sensorchip (BR-1000-12) using the amine coupling kit (BR-1000-50, GE Healthcare), using the HBS-EP+ buffer (BR-1008-26, GE Healthcare) as the running buffer. This buffer is also used for the dilutions of the ligand and the analytes.

[7] = target: T3, H223-602 (C-D MPD (Nter)) human ADAM17 human Fc fusion (human, UniProt P78536 223-602); assay: as above
T3 construct: Expressed in HEK293 and purified on protein A; not shown: human Fc domain at the C-terminus
T3 sequence (P78536 223-602): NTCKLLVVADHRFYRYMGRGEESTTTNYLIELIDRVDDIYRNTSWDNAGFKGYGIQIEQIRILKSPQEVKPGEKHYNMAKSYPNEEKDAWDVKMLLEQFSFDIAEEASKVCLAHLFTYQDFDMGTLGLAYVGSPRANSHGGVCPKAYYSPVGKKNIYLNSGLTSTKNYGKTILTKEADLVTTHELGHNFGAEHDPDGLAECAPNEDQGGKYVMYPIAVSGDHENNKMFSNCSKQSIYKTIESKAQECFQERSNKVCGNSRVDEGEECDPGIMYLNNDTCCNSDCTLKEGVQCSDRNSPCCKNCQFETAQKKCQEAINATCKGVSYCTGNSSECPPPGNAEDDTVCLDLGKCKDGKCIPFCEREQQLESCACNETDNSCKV
Method: as §1

[8] = target: T4, H475-602 (D-MPD (Nter)) human ADAM17 human Fc fusion (human, UniProt P78536 475-602); assay: as above
T4 construct: Expressed in HEK293 and purified on protein A; not shown: human Fc domain at the C-terminus
T4 sequence (P78536 475-602): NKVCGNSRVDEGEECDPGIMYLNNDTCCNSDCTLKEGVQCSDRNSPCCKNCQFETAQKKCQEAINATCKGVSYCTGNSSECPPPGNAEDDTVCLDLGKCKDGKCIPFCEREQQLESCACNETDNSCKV
Method: as §1

[9] = target: T5, H603-671 (MPD (Cter)) human ADAM17 human Fc fusion (human, UniProt P78536 603-671); assay: as above
T5 construct: Expressed in HEK293 and purified on protein A; not shown: human Fc domain at the C-terminus
T5 sequence (P78536 603-671): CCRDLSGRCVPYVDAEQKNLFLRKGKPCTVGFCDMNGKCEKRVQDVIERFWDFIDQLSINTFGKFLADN
Method: as §1

[10] = target: T6, H1-474 (P-C) human ADAM17 human Fc fusion (human, UniProt P78536 18-474); assay: as above
T6 construct: Expressed in HEK293 and purified on protein A; not shown: human Fc domain at the C-terminus
T6 sequence (P78536 18-474): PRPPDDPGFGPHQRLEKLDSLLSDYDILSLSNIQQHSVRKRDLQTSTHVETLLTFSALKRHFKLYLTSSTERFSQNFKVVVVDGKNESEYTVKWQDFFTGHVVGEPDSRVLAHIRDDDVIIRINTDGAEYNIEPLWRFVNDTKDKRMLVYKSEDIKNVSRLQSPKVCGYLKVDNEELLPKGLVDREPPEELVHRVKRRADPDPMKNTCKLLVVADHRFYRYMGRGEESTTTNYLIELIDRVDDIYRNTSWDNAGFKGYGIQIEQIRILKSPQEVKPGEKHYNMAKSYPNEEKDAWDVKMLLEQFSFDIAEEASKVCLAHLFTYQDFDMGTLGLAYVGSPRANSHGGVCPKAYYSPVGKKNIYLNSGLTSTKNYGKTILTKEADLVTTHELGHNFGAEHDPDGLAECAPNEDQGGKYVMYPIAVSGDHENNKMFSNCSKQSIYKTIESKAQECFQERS
Method: as §1

[11] = target: T7, H223-563 (C-D) human ADAM17 human Fc fusion (human, UniProt P78536 223-563); assay: as above
T7 construct: Expressed in HEK293 and purified on protein A; not shown: human Fc domain at the C-terminus
T7 sequence (P78536 223-563): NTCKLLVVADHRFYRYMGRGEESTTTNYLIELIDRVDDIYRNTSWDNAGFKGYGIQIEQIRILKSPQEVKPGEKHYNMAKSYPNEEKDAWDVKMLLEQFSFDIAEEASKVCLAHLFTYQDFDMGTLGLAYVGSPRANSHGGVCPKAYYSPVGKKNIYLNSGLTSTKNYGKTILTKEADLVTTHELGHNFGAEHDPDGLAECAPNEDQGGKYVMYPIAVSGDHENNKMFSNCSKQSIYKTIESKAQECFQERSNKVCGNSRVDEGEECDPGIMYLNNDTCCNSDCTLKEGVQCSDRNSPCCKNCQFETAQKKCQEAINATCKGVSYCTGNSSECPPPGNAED
Method: as §1

[12] = target: soluble ADAM17 (extracellular domain of ADAM-17) (human, UniProt P78536 215-671); assay: SPR Biacore, antibody captured on rabbit anti-mouse IgG, soluble ADAM17 400 to 12.5 nM, 1:1 Langmuir model
Sequence of soluble ADAM17 (extracellular domain of ADAM-17) (P78536 215-671): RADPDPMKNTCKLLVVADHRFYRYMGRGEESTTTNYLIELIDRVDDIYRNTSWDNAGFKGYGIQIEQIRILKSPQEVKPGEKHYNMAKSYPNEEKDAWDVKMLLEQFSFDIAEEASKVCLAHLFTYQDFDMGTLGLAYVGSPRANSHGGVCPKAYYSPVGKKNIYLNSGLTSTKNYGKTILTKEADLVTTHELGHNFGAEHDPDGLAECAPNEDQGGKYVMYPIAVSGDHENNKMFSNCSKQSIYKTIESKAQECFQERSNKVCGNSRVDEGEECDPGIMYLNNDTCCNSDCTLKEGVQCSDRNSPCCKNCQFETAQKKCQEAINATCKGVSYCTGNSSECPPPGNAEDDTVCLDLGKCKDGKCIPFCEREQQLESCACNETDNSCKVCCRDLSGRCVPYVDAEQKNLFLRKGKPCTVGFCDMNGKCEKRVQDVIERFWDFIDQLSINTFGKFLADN
Method: The antibody (ligand) was bound to the second flowcell of a Biacore CM5 sensor chip (GE Healthcare) activated on both flowcells with a Rabbit anti-Mouse (RAM) IgG (H+L) covalently linked to the carboxymethyldextran matrix. Soluble ADAM17 (analyte) at concentrations ranging from 400 to 12.5 nM obtained by a two fold dilution scheme (assuming a molecular weight of 52 kDa) was injected onto the surface at a flow rate of 30 μl/min in a 120 s pulse (association) plus an extra 180 s delay for the dissociation phase measurement. The RAM surface was regenerated using NaOH 30 mM, NaCl 150 mM and 10 mM Glycine, HCl pH 1.5 buffer solutions. Curves obtained at each concentration were double referenced by first subtracting the signal from the reference FC1 surface (RAM without any mouse anti-TACE mAb) followed by subtraction of the signal obtained from a running buffer injection (Biacore HBS-EP buffer).
Data were processed using BIAevaluation 3.1 software using the 1:1 Langmuir model. The suitability of the fit was measured by the values of the Refractive Index (RI) which have to tend to zero and the κ² value.

T1 sequence (P78536 215-824 limits assumed): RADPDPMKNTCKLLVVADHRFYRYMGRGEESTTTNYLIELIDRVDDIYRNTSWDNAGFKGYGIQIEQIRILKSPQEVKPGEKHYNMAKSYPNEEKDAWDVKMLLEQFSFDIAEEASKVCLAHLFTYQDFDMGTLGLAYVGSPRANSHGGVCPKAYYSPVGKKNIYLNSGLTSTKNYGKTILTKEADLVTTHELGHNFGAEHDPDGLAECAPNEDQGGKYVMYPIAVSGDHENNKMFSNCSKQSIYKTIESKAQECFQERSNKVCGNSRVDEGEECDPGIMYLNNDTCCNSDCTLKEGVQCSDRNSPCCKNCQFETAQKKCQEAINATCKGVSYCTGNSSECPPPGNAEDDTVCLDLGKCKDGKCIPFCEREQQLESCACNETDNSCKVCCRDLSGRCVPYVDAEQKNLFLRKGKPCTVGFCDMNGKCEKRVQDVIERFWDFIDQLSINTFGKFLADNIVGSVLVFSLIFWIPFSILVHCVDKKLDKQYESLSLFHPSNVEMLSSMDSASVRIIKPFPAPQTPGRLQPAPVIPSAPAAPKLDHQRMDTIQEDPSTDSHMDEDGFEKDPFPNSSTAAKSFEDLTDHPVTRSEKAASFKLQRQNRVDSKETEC

Binder	binding result [1]	IC50 (nM), inhibition of AREG-Nluc shedding from A431 cells [2]	IC50 (nM), inhibition of HB-EGF-Nluc shedding from A431 cells [2]	IC50 (nM), inhibition of TGFα-Nluc shedding from A431 cells [2]	IC50 (nM), inhibition of TNFα-Nluc shedding from A431 cells [2]	IC50 (nM), mean over the four substrates shed from A431 cells [2]	response (RU) [3]	response (RU) [4]	response (RU) [5]	response (RU) [6]	response (RU) [7]	response (RU) [8]	response (RU) [9]	response (RU) [10]	response (RU) [11]	Kd [12]	koff [12]	kon [12]
enzymatically deglycosylated m1022C3 (antibody, V domains shown, also called enzymatically deglycosylated 1022C3) VH: QVTLKESGPGILQPSQTLSLTCSFSGFSLDTSGMGVSWIRQPSGKGLEWLAHIYWDDDKRYNPSLKSRLTISKDTSSNQVFLKITSLDTADTATYYCARRSHFGNYYYAMDYWGQGTSVTVTS VL: DVQMTQTTSSLSASLGDRVTISCRASQDISSYLNWYQQKPDGTFKLLIFYTSRLQSGVPSKYSGSGSGTDYSLTISNLEQEDIAAYFCQQGKTLPLTFGAGTKLELK	binds	–	–	–	–	–	–	–	–	–	–	–	–	–	–	–	–	–
m1022C3 (murine anti-ADAM17 monoclonal antibody 1022C3, hybridoma I-4686) (antibody, V domains shown, N-glycosylated asparagine in CDR-H1, Murine antibody from a hybridoma; also called mAb 1022C3; mAb m1022C3) VH: QVTLKESGPGILQPSQTLSLTCSFSGFSLNTSGMGVSWIRQPSGKGLEWLAHIYWDDDKRYNPSLKSRLTISKDTSSNQVFLKITSLDTADTATYYCARRSHFGNYYYAMDYWGQGTSVTVTS VL: DVQMTQTTSSLSASLGDRVTISCRASQDISSYLNWYQQKPDGTFKLLIFYTSRLQSGVPSKYSGSGSGTDYSLTISNLEQEDIAAYFCQQGKTLPLTFGAGTKLELK	–	0.067 nM	0.062 nM	0.093 nM	0.054 nM	0.069 nM	90 to 140 RU	< 10 RU	< 10 RU	< 10 RU	< 10 RU	< 10 RU	< 10 RU	< 10 RU	< 10 RU	1.27 nM	0.00036 s⁻¹	284000 M⁻¹ s⁻¹
